# Test results from patent US12285470B2, “Trim proteins and galectins cooperate and codirect autophagy and are useful in the treatment of autophagy related diseases” (UNM RAINFOREST INNOVATIONS, priority 2016, dated 2025).
# T1: Galectin-8 (Homo sapiens, UniProt O00214)
# T1 construct: made in house; host or cells: Escherichia coli SoluBL21
# T1 sequence (O00214 1-359 isoform O00214-2): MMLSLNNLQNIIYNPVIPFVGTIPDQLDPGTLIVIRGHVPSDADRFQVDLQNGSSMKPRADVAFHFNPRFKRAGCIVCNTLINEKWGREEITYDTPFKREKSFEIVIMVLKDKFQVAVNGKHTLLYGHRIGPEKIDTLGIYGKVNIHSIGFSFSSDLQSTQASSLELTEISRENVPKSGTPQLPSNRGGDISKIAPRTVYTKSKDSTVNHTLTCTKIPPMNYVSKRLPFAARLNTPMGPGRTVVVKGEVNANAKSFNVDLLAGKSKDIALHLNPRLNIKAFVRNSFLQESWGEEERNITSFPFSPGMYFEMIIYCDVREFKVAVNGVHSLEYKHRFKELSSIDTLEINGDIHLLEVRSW
# B1: TRIM55: TRIM (tripartite motif) protein tested in GST-Galectin pulldowns (protein)
# chain: MSASLNYKSFSKEQQTMDNLEKQLICPICLEMFTKPVVILPCQHNLCRKCASDIFQASNPYLPTRGGTTMASGGRFRCPSCRHEVVLDRHGVYGLQRNLLVENIIDIYKQESTRPEKKSDQPMCEEHEEERINIYCLNCEVPTCSLCKVFGAHKDCQVAPLTHVFQRQKSELSDGIAILVGSNDRVQGVISQLEDTCKTIEECCRKQKQELCEKFDYLYGILEERKNEMTQVITRTQEEKLEHVRALIKKYSDHLENVSKLVESGIQFMDEPEMAVFLQNAKTLLKKISEASKAFQMEKIEHGYENMNHFTVNLNREEKIIREIDFYREDEDEEEEEGGEGEKEGEGEVGGEAVEVEEVENVQTEFPGEDENPEKASELSQVELQAAPGALPVSSPEPPPALPPAADAPVTQGEVVPTGSEQTTESETPVPAAAETADPLFYPSWYKGQTRKATTNPPCTPGSEGLGQIGPPGSEDSNVRKAEVAAAAASERAAVSGKETSAPAATSQIGFEAPPLQGQAAAPASGSGADSEPARHIFSFSWLNSLNE
# modifications: left off: small tags and cut ends
# notes: TRIM (tripartite motif) protein tested in GST-Galectin pulldowns
# B2: TRIM56: TRIM protein, Accession No. NM_030961, SEQ ID NO: 10 (protein, listed as Homo sapiens)
# chain: MVSHGSSPSLLEALSSDFLACKICLEQLRAPKTLPCLHTYCQDCLAQLADGGRVRCPECRETVPVPPEGVASFKTNFFVNGLLDLVKARACGDLRAGKPACALCPLVGGTSTGGPATARCLDCADDLCQACADGHRCTRQTHTHRVVDLVGYRAGWYDEEARERQAAQCPQHPGEALRFLCQPCSQLLCRECRLDPHLDHPCLPLAEAVRARRPGLEGLLAGVDNNLVELEAARRVEKEALARLREQAARVGTQVEEAAEGVLRALLAQKQEVLGQLRAHVEAAEEAARERLAELEGREQVARAAAAFARRVLSLGREAEILSLEGAIAQRLRQLQGCPWAPGPAPCLLPQLELHPGLLDKNCHLLRLSFEEQQPQKDGGKDGAGTQGGEESQSRREDEPKTERQGGVQPQAGDGAQTPKEEKAQTTREEGAQTLEEDRAQTPHEDGGPQPHRGGRPNKKKKFKGRLKSISREPSPALGPNLDGSGLLPRPIFYCSFPTRMPGDKRSPRITGLCPFGPREILVADEQNRALKRFSLNGDYKGTVPVPEGCSPCSVAALQSAVAFSASARLYLINPNGEVQWRRALSLSQASHAVAALPSGDRVAVSVAGHVEVYNMEGSLATRFIPGGKASRGLRALVFLTTSPQGHFVGSDWQQNSVVICDGLGQVVGEYKGPGLHGCQPGSVSVDKKGYIFLTLREVNKVVILDPKGSLLGDFLTAYHGLEKPRVTTMVDGRYLVVSLSNGTIHIFRVRSPDS
# B3: TRIM6: TRIM (tripartite motif) protein tested in GST-Galectin pulldowns (protein)
# chain: MTSPVLVDIREEVTCPICLELLTEPLSIDCGHSFCQACITPNGRESVIGQEGERSCPVCQTSYQPGNLRPNRHLANIVRRLREVVLGPGKQLKAVLCADHGEKLQLFCQEDGKVICWLCERSQEHRGHHTFLVEEVAQEYQEKFQESLKKLKNEEQEAEKLTAFIREKKTSWKNQMEPERCRIQTEFNQLRNILDRVEQRELKKLEQEEKKGLRIIEEAENDLVHQTQSLRELISDLERRCQGSTMELLQDVSDVTERSEFWTLRKPEALPTKLRSMFRAPDLKRMLRVCRELTDVQSYWVDVTLNPHTANLNLVLAKNRRQVRFVGAKVSGPSCLEKHYDCSVLGSQHFSSGKHYWEVDVAKKTAWILGVCSNSLGPTFSFNHFAQNHSAYSRYQPQSGYWVIGLQHNHEYRAYEDSSPSLLLSMTVPPRRVGVFLDYEAGTVSFYNVTNHGFPIYTFSKYYFPTTLCPYFNPCNCVIPMTLRRPSS
# modifications: left off: small tags and cut ends
# notes: as for B1
# B4: TRIM 17: TRIM (tripartite motif) protein tested in GST-Galectin pulldowns (protein)
# chain: MEAVELARKLQEEATCSICLDYFTDPVMTTCGHNFCRACIQLSWEKARGKKGRRKRKGSFPCPECREMSPQRNLLPNRLLTKVAEMAQQHPGLQKQDLCQEHHEPLKLFCQKDQSPICVVCRESREHRLHRVLPAEEAVQGYKLKLEEDMEYLREQITRTGNLQAREEQSLAEWQGKVKERRERIVLEFEKMNLYLVEEEQRLLQALETEEEETASRLRESVACLDRQGHSLELLLLQLEERSTQGPLQMLQDMKEPLSRKNNVSVQCPEVAPPTRPRTVCRVPGQIEVLRGFLEDVVPDATSAYPYLLLYESRQRRYLGSSPEGSGFCSKDRFVAYPCAVGQTAFSSGRHYWEVGMNITGDALWALGVCRDNVSRKDRVPKCPENGFWVVQLSKGTKYLSTFSALTPVMLMEPPSHMGIFLDFEAGEVSFYSVSDGSHLHTYSQATFPGPLQPFFCLGAPKSGQMVISTVTMWVKG
# modifications: left off: small tags and cut ends
# notes: as for B1
# B5: TRIM20: TRIM protein, Accession No. NM_000243, SEQ ID NO: 7 (protein, listed as Homo sapiens)
# chain: MAKTPSDHLLSTLEELVPYDFEKFKFKLQNTSVQKEHSRIPRSQIQRARPVKMATLLVTYYGEEYAVQLTLQVLRAINQRLLAEELHRAAIQEYSTQENGTDDSAASSSLGENKPRSLKTPDHPEGNEGNGPRPYGGGAASLRCSQPEAGRGLSRKPLSKRREKASEGLDAQGKPRTRSPALPGGRSPGPCRALEGGQAEVRLRRNASSAGRLQGLAGGAPGQKECRPFEVYLPSGKMRPRSLEVTISTGEKAPANPEILLTLEEKTAANLDSATEPRARPTPDGGASADLKEGPGNPEHSVTGRPPDTAASPRCHAQEGDPVDGTCVRDSCSFPEAVSGHPQASGSRSPGCPRCQDSHERKSPGSLSPQPLPQCKRHLKQVQLLFCEDHDEPICLICSLSQEHQGHRVRPIEEVALEHKKKIQKQLEHLKKLRKSGEEQRSYGEEKAVSFLKQTEALKQRVQRKLEQVYYFLEQQEHFFVASLEDVGQMVGQIRKAYDTRVSQDIALLDALIGELEAKECQSEWELLQDIGDILHRAKTVPVPEKWTTPQEIKQKIQLLHQKSEFVEKSTKYFSETLRSEMEMFNVPELIGAQAHAVNVILDAETAYPNLIFSDDLKSVRLGNKWERLPDGPQRFDSCIIVLGSPSFLSGRRYWEVEVGDKTAWILGACKTSISRKGNMTLSPENGYWVVIMMKENEYQASSVPPTRLLIKEPPKRVGIFVDYRVGSISFYNVTARSHIYTFASCSFSGPLQPIFSPGTRDGGKNTAPLTICPVGGQGPD
# B6: TRIM22: TRIM protein, Accession No. NM_006074, SEQ ID NO: 9 (protein, listed as Homo sapiens)
# chain: MDFSVKVDIEKEVTCPICLELLTEPLSLDCGHSFCQACITAKIKESVIISRGESSCPVCQTRFQPGNLRPNRHLANIVERVKEVKMSPQEGQKRDVCEHHGKKLQIFCKEDGKVICWVCELSQEHQGHQTFRINEVVKECQEKLQVALQRLIKEDQEAEKLEDDIRQERTAWKNYIQIERQKILKGFNEMRVILDNEEQRELQKLEEGEVNVLDNLAAATDQLVQQRQDASTLISDLQRRLRGSSVEMLQDVIDVMKRSESWTLKKPKSVSKKLKSVFRVPDLSGMLQVLKELTDVQYYWVDVMLNPGSATSNVAISVDQRQVKTVRTCTFKNSNPCDFSAFGVFGCQYFSSGKYYWEVDVSGKIAWILGVHSKISSLNKRKSSGFAFDPSVNYSKVYSRYRPQYGYWVIGLQNTCEYNAFEDSSSSDPKVLTLFMAVPPCRIGVFLDYEAGIVSFFNVTNHGALIYKFSGCRFSRPAYPYFNPWNCLVPMTVCPPSS
# B7: TRIM49: TRIM (tripartite motif) protein tested in GST-Galectin pulldowns (protein)
# chain: MNSGILQVFQGELICPLCMNYFIDPVTIDCGHSFCRPCFYLNWQDIPFLVQCSECTKSTEQINLKTNIHLKKMASLARKVSLWLFLSSEEQMCGTHRETKKIFCEVDRSLLCLLCSSSQEHRYHRHRPIEWAAEEHREKLLQKMQSLWEKACENHRNLNVETTRTRCWKDYVNLRLEAIRAEYQKMPAFHHEEEKHNLEMLKKKGKEIFHRLHLSKAKMAHRMEILRGMYEELNEMCHKPDVELLQAFGDILHRSESVLLHMPQPLNPELSAGPITGLRDRLNQFRVHITLHHEEANNDIFLYEILRSMCIGCDHQDVPYFTATPRSFLAWGVQTFTSGKYYWEVHVGDSWNWAFGVCNMYRKEKNQNEKIDGKAGLFLLGCVKNDIQCSLFTTSPLMLQYIPKPTSRVGLFLDCEAKTVSFVDVNQSSLIYTIPNCSFSPPLRPIFCCIHF
# modifications: left off: small tags and cut ends
# notes: as for B1
# Legend:
# Galectin-3 = target: T2, Galectin-3 (Homo sapiens, UniProt P17931); test: GST pulldown of in vitro translated radiolabeled TRIMs with GST-Galectin-3; type: binding; settings: in vitro translated 35S-Myc-HA-TRIMs, no ULK1 added
# T2 construct: made in house; host or cells: Escherichia coli SoluBL21
# T2 sequence (P17931 whole entry): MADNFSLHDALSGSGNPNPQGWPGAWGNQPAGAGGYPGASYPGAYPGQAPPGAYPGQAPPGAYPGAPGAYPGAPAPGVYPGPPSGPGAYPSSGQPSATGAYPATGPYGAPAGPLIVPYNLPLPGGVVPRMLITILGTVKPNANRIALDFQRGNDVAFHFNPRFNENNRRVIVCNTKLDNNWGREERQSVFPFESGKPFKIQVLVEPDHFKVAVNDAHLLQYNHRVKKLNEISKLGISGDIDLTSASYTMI
# From the text: (§1) GST-fusion proteins were expressed in Escherichia coli SoluBL21 (Amsbio). […] The [^35S] labeled proteins were produced using the TNT T7 Quick Coupled Transcription/Translation System (Promega) in the presence of [^35S] L-methionine. The proteins were eluted from washed beads by boiling in SDS-PAGE gel loading buffer. separated by SDS-PAGE, and radiolabeled proteins were detected in a Fujifilm bioimaging analyzer BAS-5000 (Fuji).
# Galectin-8 = target: T1, Galectin-8; test: GST pulldown of in vitro translated radiolabeled TRIMs with GST-Galectin-8; type: binding; settings: in vitro translated 35S-Myc-HA-TRIMs
# From the text: as §1
binding to GST-Galectin-3 in GST pulldown (Galectin-3),binding to GST-Galectin-8 in GST pulldown (Galectin-8),Molecule
did not,did not,"TRIM21: TRIM protein, Accession No. NM_003141, SEQ ID NO: 8"
did not,did not,B1
did not,did not,B2
bound,bound,B3
bound,bound,B4
bound,bound,B5
bound,bound,B6
bound,bound,B7
